The text below walks through data of the supplement of paper PMC12042874.

This data set in a line: amyloid nucleation score (Sup35N fusion, yeast selection) (log enrichment); library NNK2; higher = more nucleation; inactive = no reads after selection. In outline: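 Peptides of 20 random codons, each fused to Sup35N, were expressed in psi-negative yeast. Cells were induced with 100 μM copper sulfate for 24 hours and grown 7 days at 30°C on medium lacking adenine and uracil, and plasmid inserts before and after selection were Illumina-sequenced. Nucleation scores are DiMSum log enrichments of output over input reads, centred on the mode score of non-aggregating sequences, and sequences under 100 input reads were excluded.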

± gives the uncertainty stated by the source.

With SCRLLDSFDPMSRGKSSQRR, the amyloid nucleation score is -0.003 ± 1.1.

On to LTYNISQCYILFFVYITGHD, for which the amyloid nucleation score entry was “inactive”.

GLGYLMINYMRISWWAMYCA yielded an amyloid nucleation score of 0.235 ± 0.61.

For the substance VEDDDN, the amyloid nucleation score was -0.2 ± 0.63.

In the case of LMFCIENLAVMESELMGSCR, the amyloid nucleation score amounted to 0.464 ± 0.62.

Substance RLCAVITMVEVIYFSYYVWF displayed an amyloid nucleation score of 0.013 ± 0.55.

LVRLFS: the amyloid nucleation score is -0.701 ± 0.63.

The substance YQNVVCRDIQIGFWNLADSI gave an amyloid nucleation score of 5.824 ± 0.056.

Turning to WRLCVWPRCGTAKLS, the amyloid nucleation score is 0.24 ± 0.32.

For the substance ITAGVPVFYL, the amyloid nucleation score was -1.22 ± 1.1.

Turning to LTFYCME, the amyloid nucleation score is -0.465 ± 0.45.

On to GHAHLCSMYVVSIRLHLSMV, for which the amyloid nucleation score amounted to 5.59 ± 0.081.

In turn, TGLAIGCFLVCSVLYGDR yielded an amyloid nucleation score of 3.17 ± 0.13.

As to CFPSILSRFINLRCPGRSSY, the amyloid nucleation score result is “inactive”.

On to CRFIRFHYLGYNLGSHHIYI, for which the amyloid nucleation score was -0.902 ± 0.78.

Consider RVDLVDSSICADANLLG, for which the amyloid nucleation score is 1.17 ± 0.26.

In the case of RVYLFLELIRALSFRTNHCG, the amyloid nucleation score is -0.245 ± 0.76.

The substance GFVPGIMEF had an amyloid nucleation score of 0.808 ± 0.52.

For the substance LYPRPPYSRWIIANHSNWGS, the amyloid nucleation score was determined as 0.218 ± 0.8.

For LLFSSSSLPIGTGGYDLTAG, the amyloid nucleation score was -0.408 ± 1.1.

Turning to SWMNYRCRQDMSCCK, the amyloid nucleation score turned out to be 0.908 ± 0.47.

In the case of MYCETLRRSILMVNMNPRNP, the amyloid nucleation score was -0.114 ± 0.31.

For ESTWVCIFSRVLYGGYCGDQ, the amyloid nucleation score turned out to be 0.244 ± 0.33.

PVWKVERRNSHLLKDIGNSI had an amyloid nucleation score of 0.325 ± 0.57.

Consider VMTYVEQVLGNVSVLIAIIT, for which the amyloid nucleation score was found to be 0.015 ± 0.33.

The substance DWFVSGTSDRVVGNSAGGGV came in with an amyloid nucleation score of 0.589 ± 0.66.

Consider FHRPWTFLLLNLPTRGFFLR, for which the amyloid nucleation score result was “inactive”.

SCSWCMLVPRGGVGVPKG showed an amyloid nucleation score of 0.335 ± 0.22.

In the case of TFEYCSLYVGCNQGNLVITT, the amyloid nucleation score stood at 6.575 ± 0.041.

In the case of SRVGFFS, the amyloid nucleation score is 0.072 ± 1.1.

ILSTVTDSSCNIACSCNNN registered an amyloid nucleation score of 8.363 ± 0.047.

Turning to DVDEVW, the amyloid nucleation score was -1.09 ± 0.61.

As for VSEIRDFCVVIGF, the amyloid nucleation score turned out to be 0.573 ± 0.36.

As for CVMTRRSTKCFSMSLLSIWL, the amyloid nucleation score came out at 6.496 ± 0.056.

As to LDSWRPN, the amyloid nucleation score was -0.393 ± 0.39.

Turning to VCSFVCNLCSLCEIEFWLIA, the amyloid nucleation score amounted to 0.521 ± 0.26.

For the substance MLVCRWNACSVVLSVSGLAR, the amyloid nucleation score amounted to 0.718 ± 0.21.

In the case of LSGMIGSSWAFVSLALIRYQ, the amyloid nucleation score was -0.798 ± 0.64.

For the substance IMPNLAPGCRIRAIVND, the amyloid nucleation score is -0.006 ± 0.29.

Substance PPHCTGHLV showed an amyloid nucleation score of 0.183 ± 1.

Turning to HCLGVFARFWIWVGPDGLVI, the amyloid nucleation score is -1.2 ± 0.78.

As to KSMKEFSKFVLMSAP, the amyloid nucleation score amounted to 0.192 ± 0.46.

Substance HMSCMSLSVIFDIILNLCSL gave an amyloid nucleation score of 6.097 ± 0.06.

Turning to YEYVCVLAVACITGRFTLHW, the amyloid nucleation score is -0.757 ± 0.36.

As for YMCKVSPLRILSF, the amyloid nucleation score worked out at 2.66 ± 0.056.

In turn, TCCRLILYGILINNLRAWSH showed an amyloid nucleation score of 4.01 ± 0.073.

Regarding THMYCIMVYRRYSGSVGLGY, the amyloid nucleation score amounted to 0.127 ± 0.77.

In the case of LHSVMMLGGRIRPHPQVHSL, the amyloid nucleation score worked out at 0.471 ± 0.26.

Substance FLYLALCKI registered an amyloid nucleation score of 2.49 ± 0.14.

For the substance WNGQDGQGLVGLKRP, the amyloid nucleation score worked out at 0.344 ± 0.23.

For RIGMPMMSAYTMGLVTDRFT, the amyloid nucleation score was determined as 1.06 ± 0.4.

On to NELLNTWRLLSCPWRIWSLR, for which the amyloid nucleation score worked out at 0.67 ± 0.26.

As to NLVILFGKWRRFLFAQWNWF, the amyloid nucleation score entry was “inactive”.

VYGLVL: the amyloid nucleation score was 0.011 ± 0.45.

With SQHGVKNLSSRFESLIA, the amyloid nucleation score was -0.197 ± 0.79.

Turning to VDMTGCLTGVDVTSLRNIPL, the amyloid nucleation score stood at 0.931 ± 0.38.

As for GMCLTGSTSVRTNNSPHVSR, the amyloid nucleation score turned out to be 0.803 ± 0.32.

For LATKMSRGYSIRDWS, the amyloid nucleation score is 0.052 ± 0.24.

Consider GGNLGRPEKALSRRCCVDYL, for which the amyloid nucleation score entry is “inactive”.

The substance ICSSPLRIISINKLSGTYNL registered an amyloid nucleation score of 2.25 ± 0.14.

With CGLLYREVSIGQGSPTGVRD, the amyloid nucleation score result is “inactive”.

As for SCVINM, the amyloid nucleation score is 1.55 ± 0.11.

As for FGNGDKSGMIGINVNLLCRM, the amyloid nucleation score amounted to 5.73 ± 0.034.

FCMNTQH gave an amyloid nucleation score of 5.288 ± 0.042.

On to SNEPIGTASLHDYVGPRVST, for which the amyloid nucleation score is -0.332 ± 0.44.

Consider SKFYNSYSYFTLFVVVLMFD, for which the amyloid nucleation score was -0.936 ± 1.1.

The substance MFWRITGAI registered an amyloid nucleation score of 0.402 ± 0.34.

In turn, DSSIAYFIGVLASIGADEDR came in with an amyloid nucleation score of 6.452 ± 0.061.

For the substance EWVYFLCSFHPSIDFLNISD, the amyloid nucleation score was 5.62 ± 0.076.

As to HDYVLFISECHKLLGAS, the amyloid nucleation score result was “inactive”.

Regarding HDYGLCTGVDIWITLSCCDR, the amyloid nucleation score is 9.637 ± 0.029.

Take DGFYG: the amyloid nucleation score entry was “inactive”.

Substance AHHLSFGVNDCSTCERSVQ registered an amyloid nucleation score of 0.77 ± 0.28.

FGMTRRETWNLSGCESITCT gave an amyloid nucleation score of 0.593 ± 0.45.

With TTRSRVWRKLGSSCTI, the amyloid nucleation score stood at 0.242 ± 0.31.

For the substance DDYTDTCRCDMFRFSEFLTN, the amyloid nucleation score is -0.534 ± 0.74.

Consider GRESKVWIPFTGALF, for which the amyloid nucleation score is -1.04 ± 1.1.

For VLSSRLASIEGNKSSVGFYG, the amyloid nucleation score result is “inactive”.

TISLPYHHKVSRAMNSRF: the amyloid nucleation score was -0.028 ± 0.62.

On to RCQTFLGKETPSFYRKIVKF, for which the amyloid nucleation score is -1.02 ± 0.55.

The substance QVCDRILTWSRLPLSISRVR returned an amyloid nucleation score of 0.062 ± 0.79.

Regarding LSPTYRFGTTSSWGINGRDT, the amyloid nucleation score came out at 0.716 ± 0.24.

Regarding CVSSARNIHFNGVVKCVRYR, the amyloid nucleation score was 2.79 ± 0.054.

Regarding SQSKNDQ, the amyloid nucleation score came to 0.257 ± 0.34.

Turning to FTQTSTVPSKETALALNLMR, the amyloid nucleation score turned out to be 0.688 ± 0.57.

NLVFCFDFQMSAPISGEMQY had an amyloid nucleation score of 4.87 ± 0.098.

On to MHHIFYVGNLSW, for which the amyloid nucleation score entry was “inactive”.

For IVTINGNN, the amyloid nucleation score is -0.51 ± 0.44.

AASWTPSCNCPPWVFHGWLL: the amyloid nucleation score came out at 0.16 ± 0.8.

With PDFFCRSVVNQKMYLKTLHY, the amyloid nucleation score was -1.03 ± 1.1.

The substance IKLDIYNWAFSFNWFDK yielded an amyloid nucleation score of 6.05 ± 0.075.

On to VLSDL, for which the amyloid nucleation score was -1.18 ± 0.75.

SSSAIHLRFNYCYHCFHSLT had an amyloid nucleation score of 5.08 ± 0.065.

Substance ARDRNSFGLDCAVFMSYFTT registered an amyloid nucleation score of 3.34 ± 0.11.

For the substance QSFNVCCWLGEMDVLYSSIT, the amyloid nucleation score stood at 8.997 ± 0.038.

SIPIIETGVWYVNNRVLMN: the amyloid nucleation score was -1.43 ± 0.54.

Take SSSVDRTVHPLCYGFSLRRD: the amyloid nucleation score was -0.168 ± 0.28.

On to HNGSNFGTWSQGSLRHVRAR, for which the amyloid nucleation score is -0.023 ± 0.31.

On to FPTFVAMW, for which the amyloid nucleation score amounted to 0.35 ± 0.23.

As for LDINIFM, the amyloid nucleation score is -0.304 ± 1.1.

As for GYCETNFGGCVPDWMEMLQR, the amyloid nucleation score stood at 6.67 ± 0.061.

FYFEMVTSD: the amyloid nucleation score entry was “inactive”.

As to MRGGLGV, the amyloid nucleation score amounted to 0.492 ± 0.49.

Regarding CCRNLRDRLNW, the amyloid nucleation score entry is “inactive”.

Regarding QWMRSWNDTGRAES, the amyloid nucleation score was found to be 2.13 ± 0.1.

Regarding SFYWYRCVDIADSTSKYDGF, the amyloid nucleation score entry is “inactive”.

Take LMSFGDLCIHLGFGSCFCLM: the amyloid nucleation score is -0.631 ± 0.39.

On to VMCSWVGDLWFCESIRAQEV, for which the amyloid nucleation score worked out at 8.035 ± 0.047.

Turning to YNTPIIPAWVFSFHQWPEAF, the amyloid nucleation score was -1.6 ± 1.1.

As to EGIVSMFVIRVYV, the amyloid nucleation score was found to be 0.63 ± 0.46.

As to LYLYGDYV, the amyloid nucleation score is 7.65 ± 0.079.

The substance TTCDNEREGTLKYVNVCCNL returned an amyloid nucleation score of 5.42 ± 0.045.

Turning to VVQQLIRKITVFSLRLVLNK, the amyloid nucleation score was found to be 4.16 ± 0.073.

Consider EHHYI, for which the amyloid nucleation score is -0.202 ± 1.

QIRPLRKRELYSW showed an amyloid nucleation score of 2.64 ± 0.066.

The substance NQMCIATFHHMAYT came in with an amyloid nucleation score of 2.87 ± 0.086.

NFKTI: the amyloid nucleation score result is “inactive”.

RMLSRSRWLTI: the amyloid nucleation score is -0.169 ± 0.34.

On to GRSEVRFMTMLMLCKKCACL, for which the amyloid nucleation score was determined as 5.547 ± 0.034.

As for LSVRPASNELCAHVVVRFEC, the amyloid nucleation score was found to be 3.66 ± 0.09.

Take GSWLIEMCEVVSNSMTSMGP: the amyloid nucleation score came to 1.29 ± 0.3.

As for EVLARR, the amyloid nucleation score is 0.611 ± 0.46.

As to NHRKVLMVVVLAVHNMGCCI, the amyloid nucleation score is 3.75 ± 0.15.

Consider PTDHSTEVSLRFCCRGVSEL, for which the amyloid nucleation score is -0.403 ± 0.46.

YMTPVLDSHSFADVSAIRCV registered an amyloid nucleation score of 0.212 ± 0.39.

Consider HARVKLVIILLTLREGGMFW, for which the amyloid nucleation score was -0.108 ± 0.62.

QVSLMKVGWITMTPLGLHSL displayed an amyloid nucleation score of 4.03 ± 0.069.

On to LIEFAFVQFCNIVIEP, for which the amyloid nucleation score was found to be 7.102 ± 0.031.

For VVLRHHLFSSALYICMRGIQ, the amyloid nucleation score result is “inactive”.

For the substance DVLEIFVMTRGIVEVNPDSN, the amyloid nucleation score was found to be 8.665 ± 0.031.

As to FFLLVCVDGKTRRVD, the amyloid nucleation score was found to be 0.8 ± 0.15.

On to LFCTFKLRAMTFTSNKSRVV, for which the amyloid nucleation score was 1.04 ± 0.43.

For ERFRIGTCSIRCSYILGLRR, the amyloid nucleation score was -0.898 ± 0.54.

Substance GNPTESG returned an amyloid nucleation score of 0.148 ± 0.29.

For the substance CAISYSFPGIFRQWCVFPDG, the amyloid nucleation score was -0.593 ± 0.33.

Turning to KSRFML, the amyloid nucleation score was determined as 0.627 ± 0.57.

With GVTLNSCFFNRVYLTLFGIN, the amyloid nucleation score turned out to be 6.946 ± 0.031.

With EIEEYWGV, the amyloid nucleation score was -0.125 ± 0.63.

With TSFGWSGSCKLMYSMSTSGT, the amyloid nucleation score amounted to 0.636 ± 0.3.

For YGFGHRGNMTAWLSMATKTF, the amyloid nucleation score is -0.109 ± 0.76.
